Measured values published in the RNAGym collection of RNA variant scans (doi:10.7554/elife.90254).

B1: OR4K15 (parent)
chain: GUUAACGGUCAUAGGCCAUGGAAACUAGGAGCACCAUUUCGCUGCCAGUGAAGAAAUGAACAAAGAAAAUCUGGGCCAGGCAGGCAUCAAAAGAAAUAGUCUUGCGCUCAACCAGAAAGUCUGUAAUCAUUUUAAGGGUA

Variants of: B1
Assay: self-cleavage, relative activity (ratio to wild type); higher = more cleavage; in vitro, sequencing; the parent is a self-cleaving ribozyme

| Variant | self-cleavage |
| --- | --- |
| GUUAACGGUCAUAGGCCAUGGAAACUAGGAGCACCAUUUCGCUGCCAGUGAAGAAAUGAACAAAGAAAAUCUGGGCCAGGCAGGCAUCAAGAGAAAUAGUCUUGCGCUCAACCAGAAUGUCUGUAAUCAUUUUAAGGGUA [A91G A118U] | 0.53 |
| GUUAACGGUCAUAGGCCAUGGAAACUAGGAGCACCAUUUCGCUGCCAGUGAAGAAAUGAACAAAGAAAAUCUGGGCCAGGCAGGCAUCAAGAGAAAUAGUCUUGCGCUCAACCAGAACGUCUGUAAUCAUUUUAAGGGUA [A91G A118C] | 0.47 |
| GUUAACGGUCAUAGGCCAUGGAAACUAGGAGCACCAUUUCGCUGCCAGUGAAGAAAUGAACAAAGAAAAUCUGGGCCAGGCAGGCAUCAACAGAAAUAGUCUUGCGCUCAACCAGAAAGUCUGUAAUCGUUUUAAGGGUA [A91C A129G] | 1.15 |
| GUUAACGGUCAUAGGCCAUGGAAACUAGGAGCACCAUUUCGCUGCCAGUGAAGAAAUGAACAAAGAAAAUCUGGGCCAGGCAGGCAUCAUAAGAAAUAGUCUUGCGCUCAACCAGAAAGUCUGUAAUCAUCUUAAGGGUA [A90U U131C] | 2.68 |
| GUUAACGGUCAUAGGCCAUGGAAACUAGGAGCACCAUUUCGCUGCCAGUGAAGAAAUGAACAAAGAAAAUCUGGGCCAGGCAGGCAUCAAGAGAAAUAGUCUUGCGCUCAACCAGAAAGUCCGUAAUCAUUUUAAGGGUA [A91G U122C] | 0.42 |
| GUUAACGGUCAUAGGCCAUGGAAACUAGGAGCACCAUUUCGCUGCCAGUGAAGAAAUGAACAAAGAAAAUCUGGGCCAGGCAGGCAUCAAGAGAAAUAGUCUUGCGCUCAACCAGAAAGUCUGUAAUCAUUUUGAGGGUA [A91G A134G] | 0.97 |
| GUUAACGGUCAUAGGCCAUGGAAACUAGGAGCACCAUUUCGCUGCCAGUGAAGAAAUGAACAAAGAAAAUCUGGGCCAGGCAGGCAUCAAGAGAAAUAGUCUCGCGCUCAACCAGAAAGUCUGUAAUCAUUUUAAGGGUA [A91G U103C] | 0.46 |
| GUUAACGGUCAUAGGCCAUGGAAACUAGGAGCACCAUUUCGCUGCCAGUGAAGAAAUGAACAAAGAAAAUCUGGGCCAGGCAGGCAUCAAGAGAAAUAGUCUUGCGCUCAACCAGAAAGUCUGUAAUCAUUUUAGGGGUA [A91G A135G] | 1.06 |
| GUUAACGGUCAUAGGCCAUGGAAACUAGGAGCACCAUUUCGCUGCCAGUGAAGAAAUGAACAAAGAAAAUCUGGGCCAGGCAGGCAUCAAGAGAAAUAGUCUUGCGCACAACCAGAAAGUCUGUAAUCAUUUUAAGGGUA [A91G U108A] | 0.01 |
| GUUAACGGUCAUAGGCCAUGGAAACUAGGAGCACCAUUUCGCUGCCAGUGAAGAAAUGAACAAAGAAAAUCUGGGCCAGGCAGGCAUCAAGAGAAAUAGUCUUGCGCUCAACCAGACAGUCUGUAAUCAUUUUAAGGGUA [A91G A117C] | 0.67 |
| GUUAACGGUCAUAGGCCAUGGAAACUAGGAGCACCAUUUCGCUGCCAGUGAAGAAAUGAACAAAGAAAAUCUGGGCCAGGCAGGCAUCAAGAGAAAUAGUCUUGCGCUCAACCAGAGAGUCUGUAAUCAUUUUAAGGGUA [A91G A117G] | 1.48 |
| GUUAACGGUCAUAGGCCAUGGAAACUAGGAGCACCAUUUCGCUGCCAGUGAAGAAAUGAACAAAGAAAAUCUGGGCCAGGCAGGCAUCAAGAGAAAUAGUCUUGCGCUCAGCCAGAAAGUCUGUAAUCAUUUUAAGGGUA [A91G A111G] | 0.01 |
| GUUAACGGUCAUAGGCCAUGGAAACUAGGAGCACCAUUUCGCUGCCAGUGAAGAAAUGAACAAAGAAAAUCUGGGCCAGGCAGGCAUCAACAGAAAUAGUCUUGCGCUCAACCAGAAAGUCUGUAAUCAUUUUAAGGGUA [A91C] | 1.53 |
| GUUAACGGUCAUAGGCCAUGGAAACUAGGAGCACCAUUUCGCUGCCAGUGAAGAAAUGAACAAAGAAAAUCUGGGCCAGGCAGGCAUCAAGAGAAAUAGUCUUGCGCUCAACCAGAAAGUCUGUAAUCAUUUUAAGGGUA [A91G] | 0.97 |
| GUUAACGGUCAUAGGCCAUGGAAACUAGGAGCACCAUUUCGCUGCCAGUGAAGAAAUGAACAAAGAAAAUCUGGGCCAGGCAGGCAUCAAGAGAAAUAGUCUUGCGCUCAAUCAGAAAGUCUGUAAUCAUUUUAAGGGUA [A91G C112U] | 0.01 |
| GUUAACGGUCAUAGGCCAUGGAAACUAGGAGCACCAUUUCGCUGCCAGUGAAGAAAUGAACAAAGAAAAUCUGGGCCAGGCAGGCAUCAAGAGAAAUAGUCUUGCGCUCAACCAGAAAGUCUGUAAUAAUUUUAAGGGUA [A91G C128A] | 0.44 |
| GUUAACGGUCAUAGGCCAUGGAAACUAGGAGCACCAUUUCGCUGCCAGUGAAGAAAUGAACAAAGAAAAUCUGGGCCAGGCAGGCAUCAAGAGAAAUAGUCUUGCGCUCAACCAGAAAGUCUGUAAUCAUUUUAAGGGUG [A91G A140G] | 1.21 |
| GUUAACGGUCAUAGGCCAUGGAAACUAGGAGCACCAUUUCGCUGCCAGUGAAGAAAUGAACAAAGAAAAUCUGGGCCAGGCAGGCAUCAAGAGAAAAAGUCUUGCGCUCAACCAGAAAGUCUGUAAUCAUUUUAAGGGUA [A91G U97A] | 1.05 |
| GUUAACGGUCAUAGGCCAUGGAAACUAGGAGCACCAUUUCGCUGCCAGUGAAGAAAUGAACAAAGAAAAUCUGGGCCAGGCAGGCAUCAUAAGAAAUAGUCUUGCGCUCAACCAGAAAGUCUGUAAUCAUUAUAAGGGUA [A90U U132A] | 0.72 |
| GUUAACGGUCAUAGGCCAUGGAAACUAGGAGCACCAUUUCGCUGCCAGUGAAGAAAUGAACAAAGAAAAUCUGGGCCAGGCAGGCAUCAACAGAAAUAGUCUUGCGCUCAACCAGAAAGCCUGUAAUCAUUUUAAGGGUA [A91C U120C] | 0.94 |
| GUUAACGGUCAUAGGCCAUGGAAACUAGGAGCACCAUUUCGCUGCCAGUGAAGAAAUGAACAAAGAAAAUCUGGGCCAGGCAGGCAUCAAGAGAAAUAAUCUUGCGCUCAACCAGAAAGUCUGUAAUCAUUUUAAGGGUA [A91G G99A] | 0.21 |
